# Assay results: patent US20260258115A1 (MAPP BIOPHARMACEUTICAL, published 2026)
# Assays:
# [1] = target: RSV F on RSV subtype A virus (mKate-RSV A2) (respiratory syncytial virus A2, UniProt P03420 26-574); assay: cell-based or functional assay
# [2] = target: RSV F on RSV subtype B virus (mKate-RSV B 18537) (respiratory syncytial virus B 18537, UniProt P13843 26-574); assay: cell-based or functional assay
# [3] = target: T1, RSV prefusion F (preF), subtype B (respiratory syncytial virus subtype B); assay: BLI, IgG
# T1 construct: also called Prefusion subtype B
# [4] = target: T2, RSV postfusion F (postF), subtype A (respiratory syncytial virus subtype A, UniProt P03420 26-513); assay: BLI
# T2 construct: also called Postfusion subtype A; F deltaFP
Binder,Neut IC50 subtype A [1] [mg/L],Neut IC50 subtype B [2] [mg/L],Kd [3] [nM],binding result [4]
"ADI-14336 (antibody, V domains shown, full-length IgG; also called Ab 4) VH: EVQLLESGGEVKKPGASVKVSCKASGYTFTNYGISWVRQAPGQGLEWMGWISAYNGNTNYAQKLQGRVTMTTDTSTSTAYMEVRRLRSDDTAVYYCAREPPVIAAGDFQHWGQGTLVTVSS VL: DIVMTQTPLSLPVTLGQPASISCRSSQSLVHSDTNIYLSWFQQRPGQSPRRLIYKVSNRDSGVPDRFSGSGSGTDFTLRISRVEAEDVGVYYCMQGTHWPPDFGQGTRLEIK",0.07,0.09,2.65,
"ADI-19459 (antibody, V domains shown, full-length IgG) VH: QVQLVESGGGLVQPGGSLRLSCAASGFTVSSNYMSWVRQAPGKGLEWVSVIYSGGSTYYADSVKGRFTISRDNSKNTLYLQMNSLRAEDTAVYYCAREALGMDHWYFDLWGRGTLVTVSS VL: SYELMQPPSVSVAPGKTARITCGGNNIGSKSVHWYQQKPGQAPVLVVYDDSDRPSGIPERFSGSNSGNTATLTISRVEAGDEADYYCQVWDSSSDHPVFGGGTKVTVL",0.05,0.1,1.45,
"ADI-24812 (antibody, V domains shown, full-length IgG) VH: EVQLVESGGGLVQPGGSLRLSCAASGFSFSTYAMSWVRQAPGKGLEWVSAISGGGGSTYYADSVKGRFTISRDNSKNTLYLQVNSLRAEDTAVYYCARGGYCSSDSCYPFDFWGQGTLVTVSS VL: QPVLTQPPSVSVSPGQTAMITCSGDALPKQYAYWYQQKPGQAPVLVIYKDSERPSGIPERFSGSSSGTTVTLTISGVQAEDEADYYCQSADNSGSYAVFGGGTQLTVL",0.18,,7.58,no binding
"ADI-24827 (antibody, V domains shown, full-length IgG) VH: EVQLVESGGGLVQPGGSLRLSCAASGFTVSSNYMSWVRQAPGKGLEWVSVIYSDGSTYYADSVKGRFTISRHNSKNTLYLQMNSLRAEDTAVYYCARCSTYGDYIDWYFDLWGRGTLVTVSS VL: not shown",0.02,,6.62,no binding
"ADI-14334 (antibody, V domains shown, full-length IgG; also called Ab 2) VH: EVQLVESGGGLVKPGGSLRLSCAASGVTVSSYYMTWVRQAPGKGLEFISDISSSSTYTNYADSVKGRFTISRDNAKSSLYLQMNNLRAEDTAVYYCARLGITVTGVGYFDLWGRGTLVTVSS VL: QPGLTQPPSVSGAPGQRVTISCTGSSSNIGAGYDVHWYQQLPGTAPKLLIHDNNNRPSGVPDRFSGSKSGTSASLAITGLQVEDEADYYCQSYDSSLSNYVFGTGTKLTVL",0.05,0.11,0.622,
"ADI-19458 (antibody, V domains shown, full-length IgG) VH: EVQLVESGGGRVKPGGSLRLSCAASGFTFRSYSMNWVRQAPGKGLEWVSSISSSSSYINYADSVKGRFTISRDNAKNSLYLQMNSLRAEDTAVYYCARDGSGMTIFGVVIDYWGQGTLVTVSS VL: QSVLTQPPSVSGAPGQRVTISCTGSSSNIGAGYDVHWYQQLPGTAPKLLIYGNSNRPSGVPDRFSGSKSGTSASLAITGLQAEDEADYYCQSYDRSLTVVFGGGTKLTVL",0.04,0.07,0.243,no binding
"ADI-25479 (antibody, V domains shown, full-length IgG) VH: EVQLVESGGGLVKPGGSLRLSCAASGFTFSSYSMNWVRQAPGKGLEWVSSISSSSSYIYYADSVKGRFTISRDNAKNSLYLQMNSLRAEDTAVYYCARGGYSYGAYYYYYMDVWGKGTTVTVSS VL: QSVLTQPPSVSGAPGQRVTISCTGSSSNIGAGYDVHWYQQLPGTAPKLLIYGNSNRPSGVPDRFSGSKSGTSASLAITGLQAEDEADYYCQSYDSSLSGYWVFGGGTKLTVL",0.24,0.29,4.29,no binding
"ADI-25480 (antibody, V domains shown, full-length IgG; also called Ab 430) VH: EVQLVESGGGLVKPGGSLRLSCAASGFTFSSYSMNWVRQAPGKGLEWVSSISSSSSYIYYADSVKGRFTISRDNAKNSLYLQMNSLRAEDTAVYYCARGGYSYGAYYYYYMDVWGKGTTVTVSS VL: QSVLTQPPSVSGAPGQRVTISCTGSSSNIGAGYDVHWYQQLPGTAPKLLIYGNSNRPSGVPDRFSGSKSGTSASLAITGLQAEDEADYYCQSYDSSLSGYWVFGGGTKVTVL",0.17,0.17,4.27,no binding
"ADI-19427 (antibody, V domains shown, full-length IgG) VH: EVQLVESGGGLVKPGGSLRLSCAASGFTFSSYSMNWVRQAPGKGLEWVSSISSSSSFISYADSVKGRFTISRDSAKNSLYLQMNSLRAEDTAVYYCARDHPNWNGLAYFDYWGQGTLVTVSS VL: QSVLTQPPSISGAPGQRVTISCTGSSSNIGAGYDVQWHQQLPGTAPKLLIYGNSNRPSGVPDRFSGSKSGTSASLAITGLQAEDEADYYCQSYDSSLSGWVFGGGTKLTVL",0.01,0.03,0.5,no binding
"ADI-24792 (antibody, V domains shown, full-length IgG) VH: EVQLVESGGGLVKPGGSLRLSCAASGFIFSDYYMSWIRQAPGKGLEWVSNISGGSSFTNYADSVKGRFTISRDNAKNSLYLQMNSLRAEDTAVYYCARDLGYCSSNSCLDAFDIWGQGTTVTVSS VL: QSVLTQPPSVSGAPGQRVTISCTGSSSNIGAGYDVHWYQQLPGTAPKLLIYGNTNRPSGVPDRFSGSRSGTSASLAITGLQAEDEADYYCQSYDSSLSGSLFGGGTKVTVL",0.27,0.19,1.83,no binding
"ADI-19509 (antibody, V domains shown, full-length IgG) VH: EVQLVESGGGLVKPGGSLRLSCAASGFTFSSYSMNWVRQAPGKGLEWVSSISSSSSYIYYADSVKGRFTISRDNAKNSLYLQMNSLRAEDTAVYYCASSRRSLTGDRGGWFDPWGQGTLVTVSS VL: QSVLTQPPSVSGAPGQRVTISCTGSSSNIGAGYDVHWYQQLPGTAPKLLIYGNSNRPSGVPDRFSGSKSGTSASLAITGLQAEDEADYYCQSYDSSLSGWVFGGGTKLTVL",3.42,1.56,1.58,no binding
"ADI-19431 (antibody, V domains shown, full-length IgG) VH: EVQLVESGGGLVKPGGSLRLSCAASGFTFSSYSMNWVRQAPGKGLEWVSSISSSSSYIYYADSVKGRFTISRDNAKNSLYLQMNSLRAEDTAVYYCARELYDYVWGSYRDYWGQGTLVTVSS VL: QPGLTQPPSVSGAPGQRVTISCTGSSSNIGAGYDVHWYQQLPGTAPKLLIYGNSNRPSGVPDRFSGSKSGTSASLAITGLQAEDEADYYCQSYDSSLSGSVFGGGTKVTVL",4.35,0.17,3.16,no binding
"ADI-25478 (antibody, V domains shown, full-length IgG) VH: EVQLLESGGGLVKPGGSLRLSCAASGFTFSSYSMNWVRQAPGKGLEWVSSISSSSSYIYYADSVKGRFTISRDNAKNSLYLQMNSLRAEDTAVYYCARLDYSNYYYYMDVWGKGTTVTVSS VL: QPVLTQPPSVSGAPGQRVTISCTGSSSNIGAGYDVHWYQQLPGTAPKLLIYGNSNRPSGVPDRFSGSKSGTSASLAITGLQAEDEADYYCQSYDSSLSGYVFGTGTKLTVL",2.18,3.52,6.43,no binding
"ADI-24859 (antibody, V domains shown, full-length IgG; also called Ab 419) VH: EVQLLESGGGLVKPGGSLRLSCAASGFTFSSYSMNWVRQAPGKGLEWVSSISSSSSYIYYADSVKGRFTISRDNAKNSLYLQMNSLRAEDTAVYYCARDGSPINWVSPFPFDYWGQGTLVTVSS VL: QPVLTQPPSVSGAPGQRVTISCTGSSSNIGAGYDVHWYQQLPGTAPKLLIYGNSNRPSGVPDRFSGSKSGTSASLAITGLQAEDEADYYCQSYDSSLSGSVFGGGTQLTVL",0.58,,4.95,no binding
"ADI-24805 (antibody, V domains shown, full-length IgG; also called Ab 370) VH: QVQLVQSGGGLVKPGGSLRLSCAASGFTFSSYSMNWVRQAPGKGLEWVSSISSSSSYIYYADSVKGRFTISRDNAKNSLYLQMNSLRAEDTAVYYCAREGYSSSSGYYYYMDVWGKGTTVTVSS VL: QSVLTQPPSVSGAPGQRVTISCTGSSSNIGAGYDVHWYQQLPGTAPKLLIYGNSNRPSGVPDRFSGSKSGTSASLAITGLQAEDEADYYCQSYDSSLSGSVFGTGTKVTVL",0.21,0.71,4.88,no binding
"ADI-19510 (antibody, V domains shown, full-length IgG; also called Ab 210) VH: EVQLVESGGGLVKPGGSLRLSCAASGFSLSSYYMNWVRQAPGKGLEWVSSISSSSTYINYADSVKGRFTISRDNAKNSLYLQMNSLRAEDTAVYYCARGGSITIFGVVFDSWGQGTLVTVSS VL: SYELTQPPSVSGAPGQRVTISCTGTSSNIGAGYDVHWYQQLPGTAPKLLIYVNSNRPSGVPDRFSGSKSGTSASLAITGLQAEDEADYYCQSYDSSLSGGVFGTGTKVTVL",0.16,0.83,0.239,no binding
"ADI-25484 (antibody, V domains shown, full-length IgG) VH: EVQLVESGGGLVKPGGSLRLSCAASGFTFSSYSMNWVRQAPGKGLEWVSSISSSSSYIYYADSVKGRFTISRDNAKNSLYLQMNSLRAEDTAVYYCARSIAVAGTGYGMDVWGQGTTVTVSS VL: not shown",15.3,8.58,18.4,no binding
